# Legend:
# [1] = molecular target: WT HP1α (human heterochromatin protein 1 alpha, unmodified) (human); assay: AUC
# [2] = molecular target: Phos-HP1α (HP1α co-expressed with CKII, phosphorylated in the N-terminus and hinge) (human); assay: native MS
Kd [1],stoichiometry N [2],Substance
1120 nM,,"WT HP1α (human heterochromatin protein 1 alpha, unmodified) (natural protein)"
,2,"Phos-HP1α (HP1α co-expressed with CKII, phosphorylated in the N-terminus and hinge) (natural protein)"

# Reference: paper PMC5606208
